Results published in paper PMC2729104 (Nature immunology, 2009).

Experiments:
[1] = target: protease fragment Bb of factor B (from plasma-purified FB) (human, UniProt P00751 260-764); test: pull-down
[2] = target: protease fragment Bb of factor B (from recombinant FB) (human, UniProt P00751 260-764); test: crystal structure
Sequence of protease fragment Bb of factor B (from recombinant FB) (P00751 260-764): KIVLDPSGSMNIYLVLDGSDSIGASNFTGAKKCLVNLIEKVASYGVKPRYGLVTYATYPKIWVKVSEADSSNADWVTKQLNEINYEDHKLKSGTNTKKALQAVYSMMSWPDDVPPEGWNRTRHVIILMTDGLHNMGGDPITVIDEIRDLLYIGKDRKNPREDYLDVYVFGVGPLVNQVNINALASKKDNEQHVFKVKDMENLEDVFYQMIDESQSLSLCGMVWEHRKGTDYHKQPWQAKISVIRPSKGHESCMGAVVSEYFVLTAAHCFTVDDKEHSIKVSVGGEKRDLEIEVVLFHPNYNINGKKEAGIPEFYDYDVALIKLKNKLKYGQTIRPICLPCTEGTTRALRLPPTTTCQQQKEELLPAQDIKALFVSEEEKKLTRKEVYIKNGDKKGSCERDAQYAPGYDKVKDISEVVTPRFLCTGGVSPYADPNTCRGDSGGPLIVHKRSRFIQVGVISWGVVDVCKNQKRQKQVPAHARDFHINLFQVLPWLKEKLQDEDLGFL

Sequence of protease fragment Bb of factor B (from plasma-purified FB) (P00751 260-764): as above

B1: SCIN protein with an N-terminal His6 tag (natural protein, Staphylococcus aureus)
chain: STSLPTSNEYQNEKLANELKSLLDELNVNELATGSLNTYYKRTIKISGQKAMYALKSKDFKKMSEAKYQLQKIYNEIDEALKSKY
binding result [1]: binds | binding result [2]: binds
